Biological target: T1, IL-15Rα constitutively expressed on Raji cells (UniProt Q13261 31-267, limits assumed)
T1 construct: whole, on cells; also called IL-15R-expressing Raji cells
Assay: flow cytometry, IL-15Rα-expressing Raji cells without IL-15, biotinylated 146B7, streptavidin-PE; stimulation index
Experimental: Raji cells are pre-incubated (20 minutes at 4° C.) with 10% human pooled AB serum (CLB, Amsterdam, Netherlands)in FACS buffer (PBS, 0.05%BSA, 0.02% NaNO₃). Raji cells (1-2*10⁵ cells/ml) were put in the wells, and 50 μl of unlabeled IL-15 was added in several concentrations (diluted in FACS buffer with 10% human AB serum). […] After washing twice in FACS buffer, 50 μl of streptavidin-phycoerythrin was added to each well (30 minutes at 4° C.). After washing twice in FACS buffer, cells were taken up in 200 μl of FACS buffer, and fluorescence intensity of at least 5000 cells per sample was determined after analysis by flow cytometry (FACS Calibur, Becton Dickinson) using CellQuest software.

T1 sequence (Q13261 31-267 limits assumed): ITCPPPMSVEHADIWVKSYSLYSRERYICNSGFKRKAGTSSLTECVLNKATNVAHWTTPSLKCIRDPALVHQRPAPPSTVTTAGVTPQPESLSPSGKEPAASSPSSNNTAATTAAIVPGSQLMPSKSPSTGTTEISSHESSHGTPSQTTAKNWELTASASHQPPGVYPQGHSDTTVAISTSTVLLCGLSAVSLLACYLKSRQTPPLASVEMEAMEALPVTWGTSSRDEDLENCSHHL

B1: human anti-IL-15 antibody 146B7 (antibody, human IgG1, V domains shown)
VH: EVQLVQSGAEVKKPGESLKISCKVSGYFFTTYWIGWVRQMPGKGLEYMGIIYPGDSDTRYSPSFQGQVTISADKSISTAYLQWSSLKASDTAMYYCARGGNWNCFDYWGQGTLVTVSS
VL: EIVLTQSPGTLSLSPGERATLSCRASQSVSSSYLAWYQQKPGQAPRLLIYGASRRATGIPDRFSGSGSGTDFTLTISRLEPEDFAVYYCQRYGSSHTFGQGTKLEISR
notes: also called MDX015
B1: no binding (tested: 10000 (unit not printed on the sheet)).
